In experiment [1] the target is T1, human IL-11Rα, FLAG-tagged, expressed at the surface of transiently transfected cells (human, UniProt Q14626 23-422).
T1 construct: whole, on cells; also called IL-11Rα expressing HEK cells; FLAG-tagged human IL-11Rα; not shown: tag
T1 sequence (looked up): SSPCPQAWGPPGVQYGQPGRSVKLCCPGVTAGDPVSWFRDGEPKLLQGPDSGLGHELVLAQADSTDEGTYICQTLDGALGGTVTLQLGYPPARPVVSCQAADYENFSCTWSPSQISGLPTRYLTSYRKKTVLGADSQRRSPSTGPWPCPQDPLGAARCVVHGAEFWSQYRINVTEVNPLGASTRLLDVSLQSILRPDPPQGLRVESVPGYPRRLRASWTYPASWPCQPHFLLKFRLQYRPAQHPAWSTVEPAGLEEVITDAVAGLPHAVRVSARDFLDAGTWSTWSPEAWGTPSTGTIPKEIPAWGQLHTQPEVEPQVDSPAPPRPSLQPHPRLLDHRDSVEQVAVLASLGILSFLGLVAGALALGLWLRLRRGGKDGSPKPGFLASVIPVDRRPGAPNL
In words: flow cytometry of subcloned hybridoma supernatant on cells transfected with FLAG-tagged human IL-11Rα (sheet header: 'pB1-IL11-hum.FL', 'flow cytometry (Attunes)'; text: iQue mix-and-measure, anti-mouse IgG secondary). The procedure: The mouse hybridomas producing anti-human IL-11Rα antibodies were sub-cloned, and cell culture supernatant from the subcloned hybridomas was analysed by “mix-and-measure” iQue assay for (i) ability to bind to human IL-11Rα, and (ii) cross reactivity for antigen other than IL-11Rα.
(§1) Briefly, labelled control cells (not expressing IL-11Rα at the cell surface) and unlabelled target cells expressing human IL-11Rα at their surface (following transient transfection with a plasmid encoding a FLAG-tagged human IL-11Rα) were mixed together with the cell culture supernatant (containing mouse-anti-IL-11Rα antibodies) and secondary detection antibodies (fluorescently-labelled anti-mouse IgG antibody).
(§2) The cells were then analysed using the HTFC Screening System (iQue) for the two labels (i.e. the cell label and the label on the secondary antibody). Detection of the secondary antibody on the unlabelled, IL-11Rα expressing cells indicated ability of the mouse-anti-IL-11Rα antibodies to bind to IL-11Rα. Detection of the secondary antibody on the labelled, control cells indicated cross-reactivity of the mouse-anti-IL-11Rα antibodies for target other than IL-11Rα.
Background: Flow cytometry measures light scatter and fluorescence of single cells or particles in a stream.

In experiment [2] the target is T1, human IL-11Rα, FLAG-tagged, expressed …. The experiment can be described thus: same assay; percent relative to the positive control anti-FLAG antibody (100%). The procedure:
as §1, §2
As a positive control condition, labelled and unlabelled cells were incubated with a mouse anti-FLAG tag antibody as the primary antibody.

B1: BSO-9A7 (antibody, V domains shown)
VH: QVQLQQPGAELVRPGSSVKLSCKASGYTFTNYWMHWLKQRPVQGLEWIGNIGPSDSKTHYNQKFKDKATLTVDKSSSTAYMQLNSLTSEDSAVYYCARGDYVLFTYWGQGTLVTVSA
VL: DIVLTQSPATLSMTPGDSVSLSCRASQSISNNLHWYQQKSHESPRLLIKYASQSISGIPSRFSGSGSGTDFTLSFNSVETEDFGVYFCQQRYSWPLTFGAGTKLEMK
notes: Mouse monoclonal from hybridoma; also called RA7
For B1, in experiment [1], the GMFI is 34800. Also, in experiment [2], the “% positive” value was determined as 111%.

B2: BSO-2E5 (antibody, V domains shown)
VH: QGQVQQSGAELVKPGASVKLSCKTSGFTFSTSYISWLKQKPRQSLEWIAWIYAGTGSTSYNQKFTGKAQLTVDTSSSTAYMQLSSLTSEDSAIYYCARHWAYWGQGTLVTVSA
VL: DIQMTQSPSSLSASLGERVSLTCRASQDIGSSLNWLQQEPDGTIKRLIYATASLESGVPKRFSGSRSGSDYSLTISRLESEDFVDYYCQQYASSPPTFGAGTKLELK
notes: Mouse monoclonal from hybridoma; also called RA3
In the case of B2, the GMFI in experiment [1] came out at 9540. Further, the “% positive” value in experiment [2] amounted to 30%.

B3: BSO-10D11 (antibody, V domains shown)
VH: QVQLQQSGTELVRPGTSVKMSCKAAGYTFTDYWIGWIKQRPGHGLEWIGDIFPGGDYTKCSERFKGKAKLTADTSSSTAYMQLSRLTSEDSAIYYCARRSTTIRFGAMDNWGQGTSVTVSS
VL: DIQMTQSPSSLSASLGERVSLTCRASQEISAYLSWLQQKPDGTIKRLIYSTSTLDSGVPKRFSGSRSGSDYSLTISSLESEDFADYFCLQYASSPLTFGAGTKLELK
notes: Mouse monoclonal from hybridoma
With B3, the GMFI in experiment [1] stood at 13100. The “% positive” value in experiment [2] is 42%.

B4: BSO-4G3 (antibody, V domains shown)
VH: EVQLVESGGGLVKPGGSLKLSCAASGFTFSTYAMSWVRQTPEKRLEWVAAIKSNGGSTYYPDTVKDRFTISRDNAKNTLYLQMSSLRPEDTALYYCAHGLLFAHWGQGTLVTVSA
VL: DIVLTQSPASLAVSLGQSVTISCRASESVEYSGTTLMQWYQQKPGQPPKLLIYGASNVESGVPARFSGSGSGTDFSLNIHPVEEDDIAMYFCQQSRKVPYTFGSGTKLEIK
notes: as for B3
Take B4: the GMFI in experiment [1] was determined as 9300. In addition, in experiment [2], the “% positive” value is 30%.

B5: BSO-13B10 (antibody, V domains shown)
VH: QVQLKESGPGLVAPSQSLSITCTVSGFSLTSFSISWVRQPPGKGLEWLGGIWTGGGTNYNSALKPRLSISKDNSKSQVFLKMNSLQTDDTARYYCARNSNYPSGFAYWGQGTLVTVSA
VL: DIVMTQSQKFMSTSVGDRVSVTCKASQNVGSNVAWYQQKAGQSPKALIYSASYRYSGVPDRFTGSGSGTDFTLTISNVQSEDLAEYFCQQYNSYPLTFGAGTKLELK
notes: Mouse monoclonal from hybridoma; also called RA9
Consider B5, for which the GMFI in experiment [1] amounted to 10900. In addition, in experiment [2], the “% positive” value was 35%.

B6: BSO-5E5 (antibody, V domains shown)
VH: DVQLQESGPGLVKPSQSLSLTCSVTGYSITSDYYWNWIRQFPGNKLEWMGYISYDSSNNYNPSLKNRISITRDTSKNQFFLKLNSVTTEDTATYYCASVGYYYVSDWYFDVWGTGTTVTVSS
VL: DIVMSQSPSSLPVSVGENVTMSCKSSQSLLYGSNQKNYLAWYQQKPGQSPKLLIYWASTRESGVPDRFTGSGSGTDFTLTISSVKAEDLAVYFCQQYYSYPRTFGGGTKLEIK
notes: Mouse monoclonal from hybridoma; also called RA5
In experiment [1], B6 gave a GMFI of 8780. Moreover, the “% positive” value in experiment [2] turned out to be 28%.

B7: BSO-7G9 (antibody, V domains shown)
VH: QVQLQQPGAELVKPGASVRLSCKASGYTFTSYWMHWVKQRPGQGLEWIGMIHPNSGYTNYNEKFKIKATLTVDKSSSTAHMQLSSLTSEDSAVYHCARGGYDGSYGPWFAYWGQGTLVTVSA
VL: DVVMTQTPLSLPVSLGDQASISCRSSQSLVHSNGNTYLHWYLQKPGQSPKLLIYKVSNRFSGVPDRFSGSGSGTDFTLKISRVEAEDLGVYFCSQSTHVPLTFGAGTKLELK
notes: as for B3
On to B7, for which, in experiment [1], the GMFI worked out at 18600. Further, the “% positive” value in experiment [2] was 59%.

These data come from US20200207847A1 (SINGAPORE HEALTH SERVICES PTE, published 2020).
